The test concerns the target T1, Mcm5 (S. cerevisiae, UniProt P29496 1-775).
T1 sequence: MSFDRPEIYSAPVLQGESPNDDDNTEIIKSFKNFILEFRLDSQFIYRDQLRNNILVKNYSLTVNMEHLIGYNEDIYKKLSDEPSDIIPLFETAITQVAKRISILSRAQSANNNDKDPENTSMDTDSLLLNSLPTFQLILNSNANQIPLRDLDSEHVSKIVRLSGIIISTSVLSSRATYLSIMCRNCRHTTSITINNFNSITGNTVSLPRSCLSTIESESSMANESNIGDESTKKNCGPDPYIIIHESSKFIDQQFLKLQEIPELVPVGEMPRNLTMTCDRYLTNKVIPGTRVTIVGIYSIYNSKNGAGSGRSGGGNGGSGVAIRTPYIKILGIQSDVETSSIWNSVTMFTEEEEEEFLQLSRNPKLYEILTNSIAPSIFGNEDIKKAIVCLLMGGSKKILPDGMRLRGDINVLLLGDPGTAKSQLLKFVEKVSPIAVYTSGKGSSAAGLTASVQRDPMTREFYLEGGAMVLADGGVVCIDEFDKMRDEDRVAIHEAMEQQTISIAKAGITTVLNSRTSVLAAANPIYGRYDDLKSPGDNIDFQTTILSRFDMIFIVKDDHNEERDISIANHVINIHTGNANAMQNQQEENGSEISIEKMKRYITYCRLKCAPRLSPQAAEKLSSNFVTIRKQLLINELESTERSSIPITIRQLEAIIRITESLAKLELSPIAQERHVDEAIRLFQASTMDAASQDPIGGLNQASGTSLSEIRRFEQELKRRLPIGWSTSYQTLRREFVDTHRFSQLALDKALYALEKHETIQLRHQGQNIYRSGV
Briefly: cryo-EM structure.

B1: Psf3 (natural protein)
chain: MGYYDIDDVLADGTEFPCKFQYDIPGLGYLENNPGRPITKNTKLSLPLWLARILAIVGGDEALVDEEPVPFVELLPPDMFSTKVMNAIKTDPVALDLHSINSHFFSLAIKWIMLFSEKELANVVSELLLQRAQELNHHASSLSIDLNADSTGKNSANTNIATSTFLLKLEEMEKEIYKKSHESYKDTKRWMFKK
On to B1, for which the binding result was “binds”.
